Experimental data taken from paper PMC4170648, “Clinically used antirheumatic agent auranofin is a proteasomal deubiquitinase inhibitor and inhibits tumor growth” (Oncotarget, 2014).

Molecular target: T1, HA-tagged ubiquitin-Vinyl Sulfone (UniProt P0CG48 1-76, vinyl sulfone (position not given))
T1 construct: ubiquitin, the mature cut product of a ubiquitin precursor, carrying a vinyl sulfone warhead; Commercial active-site probe; also called HA-UbVS; HA-Ub-VS; source: bought: Boston Biochem
Assay: active-site-directed covalent labelling with HA-UbVS; purified 26S proteasomes (25 nM) incubated with HA-UbVS for 1 h at 37°C, boiled in reducing sample buffer, SDS-PAGE, HA immunoblot; without Aur, and after 2 μM Aur for 10 min (labelling reduced)
Conditions: both partners purified

binding result: binds
B1: UCHL5 (enzyme, human, UniProt Q9Y5K5 1-329, looked up)
chain: MTGNAGEWCLMESDPGVFTELIKGFGCRGAQVEEIWSLEPENFEKLKPVHGLIFLFKWQPGEEPAGSVVQDSRLDTIFFAKQVINNACATQAIVSVLLNCTHQDVHLGETLSEFKEFSQSFDAAMKGLALSNSDVIRQVHNSFARQQMFEFDTKTSAKEEDAFHFVSYVPVNGRLYELDGLREGPIDLGACNQDDWISAVRPVIEKRIQKYSEGEIRFNLMAIVSDRKMIYEQKIAELQRQLAEEEPMDTDQGNSMLSAIQSEVAKNQMLIEEEVQKLKRYKIENIRRKHNYLPFIMELLKTLAEHQQLIPLVEKAKEKQNAKKAQETK
notes: UCHL5/Uch37, human, deubiquitinase associated with the 19S regulatory particle, present in purified 26S proteasomes; It stood in the assay as a component of the bought 26S proteasome and was resolved as a labelled band on SDS-PAGE; PDB 3RIS was used only for docking of the small molecule; also called UCHL5/Uch37; source: bought: Boston Biochem, as part of purified human 26S proteasomes
